The values below come from paper PMC7948480, “Enzymatic and structural properties of human glutamine:fructose-6-phosphate amidotransferase 2 (hGFAT2)” (The Journal of Biological Chemistry, 2020).

Data set [1] concerns the molecule itself. Kind of data set: SEC; Superdex 200 column, 20 mM Tris-HCl pH 7.5, 150 mM NaCl, 1 mM DTT, 0.5% NP-40, 1 ml/min; mass estimated from standard proteins.
Data set [2] deals with the molecule itself. Kind of data set: cross-linking; 3, 5 or 10 ug of purified rhGFAT2-his in PBS with 1 mM EGS, 30 min, room temperature; stopped with 30 mM Tris-HCl pH 8.0; gradient SDS-PAGE, Coomassie staining.

B1: recombinant human glutamine:fructose-6-phosphate amidotransferase 2 with a C-terminal 6xHisTag (rhGFAT2-his) (enzyme, UniProt O94808 2-682, looked up)
chain: CGIFAYMNYRVPRTRKEIFETLIKGLQRLEYRGYDSAGVAIDGNNHEVKERHIQLVKKRGKVKALDEELYKQDSMDLKVEFETHFGIAHTRWATHGVPSAVNSHPQRSDKGNEFVVIHNGIITNYKDLRKFLESKGYEFESETDTETIAKLIKYVFDNRETEDITFSTLVERVIQQLEGAFALVFKSVHYPGEAVATRRGSPLLIGVRSKYKLSTEQIPILYRTCTLENVKNICKTRMKRLDSSACLHAVGDKAVEFFFASDASAIIEHTNRVIFLEDDDIAAVADGKLSIHRVKRSASDDPSRAIQTLQMELQQIMKGNFSAFMQKEIFEQPESVFNTMRGRVNFETNTVLLGGLKDHLKEIRRCRRLIVIGCGTSYHAAVATRQVLEELTELPVMVELASDFLDRNTPVFRDDVCFFISQSGETADTLLALRYCKDRGALTVGVTNTVGSSISRETDCGVHINAGPEIGVASTKAYTSQFISLVMFGLMMSEDRISLQNRRQEIIRGLRSLPELIKEVLSLEEKIHDLALELYTQRSLLVMGRGYNYATCLEGALKIKEITYMHSEGILAGELKHGPLALIDKQMPVIMVIMKDPCFAKCQNALQQVTARQGRPIILCSKDDTESSKFAYKTIELPHTVDCLQGILSVIPLQLLSFHLAVLRGYDVDFPRNLAKSVTVE
notes: human glutamine:fructose-6-phosphate amidotransferase 2 (hGFAT2), product of the gfpt2 gene; The His tag comes from pET23a after the NotI site; Mostly a tetramer by SEC, with higher oligomers up to octamers; also called rhGFAT-his; source: E. coli Codon plus, soluble fraction, purified (Ni-NTA HisTrap column); not shown: His6, C-terminal, kept
With B1, the “stoichiometry N” value was no more than 8 in data set [1] and 4 in data set [2].

By stoichiometry N is commonly meant the number of molecules, sites or subunits per partner or assembly.
